Where no end group is shown, it is not given here.

For this experiment, the target named is T1, EGFRvIII (on U-87.ΔEGFRvIII cells) (human, UniProt P00533 25-1210).
T1 construct: whole, on cells; also called de2-7 EGFR; mutant EGFR
The experiment is described as follows: flow cytometry, membrane fluorescence staining of cell suspensions with 1 uM FITC-peptide for 30 min.

B1: anti-EGFRvIII peptide (PEPCH1)-FITC (peptide)
peptide: HFLIIGFMRRALCGA
modifications: also: FITC label, position not given here
notes: Synthetic peptide after Campa et al., 2000; Used at 1 uM as a FITC conjugate; also called PEPHC1; PEPHC1 ligand
B1: the binding result is recorded as “binds”.

(Values after patent US20060147420A1 (University of Texas, published 2006).)
